The series is described as follows: protein stability index of a GFP-peptide fusion (GPS, HEK-293T) (PSI 1-6); higher = more stable.
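Further: lentivirally expressed fusions sorted by FACS into six bins by GFP to DsRed ratio, PSI derived from sequencing read proportions per bin multiplied by bin number.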

B1: FAM189A2 WT (peptide)
chain: PRCDLVDLGEGKICFCCEEFQPAK
In the case of B1, under “parent: IOH35782_7, c terminus: a fixed tail appended”, the protein stability index stood at 2.92.

B2: KCNAB2 WT (peptide)
chain: YVDVVFANRPDPNTPMEETVRAMT
On to B2, for which, under “parent: IOH29625_26, c terminus: a fixed tail appended”, the protein stability index is 1.96.

B3: KCNAB2 WT (peptide)
chain: IPPYSRASLKGYQWLKDKILSEEG
As to B3, under “parent: IOH29625_44, c terminus: a fixed tail appended”, the protein stability index is 1.84.

B4: HNF4A WT (peptide)
chain: RFSRQCVVDKDKRNQCRYCRLKKC
For the protein B4, the protein stability index (parent: IOH35808_17, c terminus: a fixed tail appended) came to 2.46.

B5: ZNF449 WT (peptide)
chain: RIHSGEEPHKCPECGKRFLRSSDL
As for B5, the protein stability index (parent: IOH29221_58, c terminus: a fixed tail appended) turned out to be 3.27.

B6: ATL3 WT (peptide)
chain: HFKKTKKMGGKDFSFRYQQELEEE
B6: where the note is “parent: IOH37933_67, c terminus: a fixed tail appended”, the protein stability index is 2.21.

B7: VENTX WT (peptide)
chain: VFQHHQYLSPLERKRLAREMQLSE
Consider B7, for which the protein stability index (parent: IOH36691_19, c terminus: a fixed tail appended) is 2.52.

B8: FAM189A2 WT (peptide)
chain: CALNALTTTVCLVAAALRYLQIFA
As for B8, the protein stability index (parent: IOH35782_16, c terminus: a fixed tail appended) was 2.77.

B9: KCNA1 WT (peptide)
chain: LKASMRELGLLIFFLFIGVILFSS
As for B9, under “parent: IOH35854_54, c terminus: a fixed tail appended”, the protein stability index worked out at 2.1.

B10: CROP WT (peptide)
chain: VFGRGDNISDVSKFLEDDKWMEE
B10: the protein stability index (parent: IOH29119_14, c terminus: native) was found to be 1.95.

B11: ZNF449 WT (peptide)
chain: HKKKSPGEKPHRCPQCGKCFARKS
Regarding B11, the protein stability index (parent: IOH29221_53, c terminus: a fixed tail appended) amounted to 3.46.

B12: ATL3 WT (peptide)
chain: QELEEEIKELYENFCKHNGSKNVF
Regarding B12, the protein stability index (parent: IOH37933_70, c terminus: a fixed tail appended) is 2.68.

B13: ATL3 WT (peptide)
chain: YGLQGGMAFLDKRLQVKEHQHEEI
As to B13, for the setting “parent: IOH37933_38, c terminus: a fixed tail appended”, the protein stability index came to 2.62.

B14: PTPLAD1 WT (peptide)
chain: YSFYMLTCIDMDWKVLTWLRYTLW
On to B14, for which the protein stability index (parent: IOH29075_44, c terminus: a fixed tail appended) was found to be 2.31.

B15: ZNF449 WT (peptide)
chain: HTGERPYECTVCKKRFTRRSHLIG
B15: the protein stability index (parent: IOH29221_63, c terminus: a fixed tail appended) was found to be 2.07.

B16: LCOR WT (peptide)
chain: PCAGSTSLSHSPGCSSTQGNGRPG
As to B16, for the setting “parent: IOH28989_16, c terminus: a fixed tail appended”, the protein stability index was 3.04.

B17: FAM189A2 WT (peptide)
chain: VAAALRYLQIFATRRSCIDESQIS
For B17, the protein stability index (parent: IOH35782_18, c terminus: a fixed tail appended) stood at 1.98.

B18: ZNF449 WT (peptide)
chain: YRHQRLHTGERPYECTVCKKRFTR
In the case of B18, for the setting “parent: IOH29221_62, c terminus: a fixed tail appended”, the protein stability index was 2.36.

B19: FAM189A2 WT (peptide)
chain: NLAGFILGCQGAQFVSSVPRCDLV
B19: the protein stability index (parent: IOH35782_4, c terminus: a fixed tail appended) came out at 2.97.

B20: DLC1 WT (peptide)
chain: AEVVKIRDSFSNQNTETKDTKSR
Turning to B20, under “parent: IOH28890_253, c terminus: native”, the protein stability index was 2.4.

B21: MLL5 WT (peptide)
chain: DCMGIDRQHIPDTYLCERCQPRNL
Regarding B21, for the setting “parent: IOH39874_25, c terminus: a fixed tail appended”, the protein stability index was 2.99.

B22: DLC1 WT (peptide)
chain: RDAIEALCRRLNTLNKCAVMKLEI
Turning to B22, the protein stability index (parent: IOH28890_83, c terminus: a fixed tail appended) worked out at 2.68.

B23: KCNAB2 WT (peptide)
chain: SSIIHEIDSILGNKPYSKKDYRS
For B23, for the setting “parent: IOH29625_62, c terminus: native”, the protein stability index turned out to be 2.88.

B24: ZER1 WT (peptide)
chain: FDGPEAWGVCEPQREEVEERMWAA
With B24, where the note is “parent: IOH29391_108, c terminus: a fixed tail appended”, the protein stability index was determined as 2.7.

B25: ZNF449 WT (peptide)
chain: CTHCSKSFRQRAGLIMHQVTHFRG
B25: where the note is “parent: IOH29221_83, c terminus: a fixed tail appended”, the protein stability index worked out at 2.

B26: VDR WT (peptide)
chain: VTLELSQLSMLPHLADLVSYSIQK
Turning to B26, the protein stability index (parent: IOH39811_37, c terminus: a fixed tail appended) was 2.42.

B27: KCNA4 WT (peptide)
chain: YQSGGRLKRPVNVPFDIFTEEVKF
Regarding B27, the protein stability index (parent: IOH29649_40, c terminus: a fixed tail appended) was determined as 1.82.

B28: FAM189A2 WT (peptide)
chain: GSEAAVIPLDLGCTQVTQDGDIPN
Turning to B28, the protein stability index (parent: IOH35782_37, c terminus: a fixed tail appended) stood at 5.39.

B29: RBBP5 WT (peptide)
chain: TGTSNTTAIKSIEFARKGSCFLIN
As to B29, the protein stability index (parent: IOH28957_33, c terminus: a fixed tail appended) came out at 2.08.

B30: FAM98B WT (peptide)
chain: QLDKNSEVYQEVQAMFDTLGIPKS
As for B30, the protein stability index (parent: IOH35542_24, c terminus: a fixed tail appended) worked out at 3.16.

B31: KCNA4 WT (peptide)
chain: YQLGEEALLKFREDEGFVREEEDR
B31: the protein stability index (parent: IOH29649_44, c terminus: a fixed tail appended) came out at 4.53.

B32: PTPLAD1 WT (peptide)
chain: YINFRHLYKQRRRRYGQKKKKIH
For the protein B32, the protein stability index (parent: IOH29075_58, c terminus: native) amounted to 2.11.

B33: C22orf31 WT (peptide)
chain: YSLELGKAIKQKLWEALCSQGAIS
In the case of B33, the protein stability index (parent: IOH35430_40, c terminus: a fixed tail appended) amounted to 2.63.

B34: ZNF449 WT (peptide)
chain: QLTGHQRIHSGEEPHKCPECGKRF
Regarding B34, under “parent: IOH29221_57, c terminus: a fixed tail appended”, the protein stability index came to 4.05.

B35: ZNF449 WT (peptide)
chain: EPHKCPECGKRFLRSSDLYRHQRL
B35: the protein stability index (parent: IOH29221_59, c terminus: a fixed tail appended) worked out at 3.96.

B36: PCDHGA10 WT (peptide)
chain: FGIEIEVTDINDNAPKFQAENLDV
Turning to B36, the protein stability index (parent: IOH36207_21, c terminus: a fixed tail appended) came out at 2.77.

B37: DLC1 WT (peptide)
chain: NDDSADYQHFLQDCVDGLFKEVKE
For B37, the protein stability index (parent: IOH28890_220, c terminus: a fixed tail appended) is 2.66.

B38: ZER1 WT (peptide)
chain: KEMARKVIEHCSNFKEENMDTSR
As for B38, for the setting “parent: IOH29391_126, c terminus: native”, the protein stability index came out at 3.58.

B39: ZNF449 WT (peptide)
chain: TLHQRTHTEERPFKCNYCGKSFRQ
On to B39, for which the protein stability index (parent: IOH29221_76, c terminus: a fixed tail appended) is 2.24.

B40: ZER1 WT (peptide)
chain: PILRLLPQGISPVSQHWATWALYN
Turning to B40, the protein stability index (parent: IOH29391_115, c terminus: a fixed tail appended) is 3.03.

B41: ESRRG WT (peptide)
chain: YSCPATNECEITKRRRKSCQACRF
As for B41, the protein stability index (parent: IOH39815_24, c terminus: a fixed tail appended) turned out to be 3.16.

B42: ESRRA WT (peptide)
chain: SLPLQDELAFAEDLVLDEEGARAA
Consider B42, for which, where the note is “parent: IOH39702_47, c terminus: a fixed tail appended”, the protein stability index was 3.08.

B43: ZNF449 WT (peptide)
chain: FQEYDTDCEVFRQRFRQFQYREAA
Regarding B43, the protein stability index (parent: IOH29221_4, c terminus: a fixed tail appended) was 2.58.

B44: MLL5 WT (peptide)
chain: HDDGYMICCDKCSVWQHIDCMGID
Take B44: the protein stability index (parent: IOH39874_22, c terminus: a fixed tail appended) worked out at 2.33.

B45: ACBD3 WT (peptide)
chain: YVASHKIEKEEQEKKRKEEEERRR
Turning to B45, the protein stability index (parent: IOH39821_30, c terminus: a fixed tail appended) was determined as 2.71.

B46: LCOR WT (peptide)
chain: YKVKERLGTLKNPPKKKMKLMSG
For B46, the protein stability index (parent: IOH28989_68, c terminus: native) came to 1.99.

B47: RIT1 WT (peptide)
chain: FHALVREIRRKEKEAVLAMEKKSK
With B47, the protein stability index (parent: IOH29584_30, c terminus: a fixed tail appended) is 1.93.

B48: VDR WT (peptide)
chain: LIKFQVGLKKLNLHEEEHVLLMAI
Consider B48, for which the protein stability index (parent: IOH39811_53, c terminus: a fixed tail appended) is 2.28.

B49: ATL3 WT (peptide)
chain: FSFRYQQELEEEIKELYENFCKHN
For the protein B49, the protein stability index (parent: IOH37933_69, c terminus: a fixed tail appended) worked out at 2.5.

B50: ATL3 WT (peptide)
chain: EKALASILLQDHIRDLDVVVVSVA
Regarding B50, the protein stability index (parent: IOH37933_8, c terminus: a fixed tail appended) amounted to 2.89.

B51: FBXO33 WT (peptide)
chain: RLRGLLRVLRGRPGAGSRRRGRMA
In the case of B51, under “parent: IOH28939_7, c terminus: a fixed tail appended”, the protein stability index was found to be 2.16.

B52: PCDHGA10 WT (peptide)
chain: FHELQMQVTASDSGDPPLSSNVSL
For B52, the protein stability index (parent: IOH36207_89, c terminus: a fixed tail appended) was found to be 2.17.

B53: ESRRA WT (peptide)
chain: LGVAQRSLPLQDELAFAEDLVLDE
Regarding B53, for the setting “parent: IOH39702_46, c terminus: a fixed tail appended”, the protein stability index worked out at 2.84.

The values are drawn from the supplement of paper PMC10567573.
